This note sets out measurements from patent publication US20220002395A1 (FAPON BIOTECH, published 2022).

To fix the notation:
B1: Mutation 1-7 (antibody, mouse IgG2b, kappa, V domains shown)
VH: EVQLQQSGPEVVKPGASVKISCKASGYTITDYYMNWVKQSHGKGLEWIGDINPINGGTAYQQKFRDKATLTVDKSSNTAYMELRSLTSEDSALYYCTRGAEDYWGQGTTLTVSS
VL: DVVLTQTPLSLSVTIGQPASISCKSSQSLIYSNGKIYLNWFQQRPGQSPKRLMYQISKLEPGIPDRFSGSGSETDFTLKISRVEAEDLGVYYCLQATYYPQTFGGGTKLEIKR
notes: Mutation 1 as framework
B2: Mutation 1-8 (antibody, mouse IgG2b, kappa, V domains shown)
VH: EVQLQQSGPEVVKPGASVKISCKASGYTITDYYMNWVKQSHGKGLEWIGDVNPIQGGTAYNQKFRDKATLTVDKSSNTAYMELRSLTSEDSALYYCTKGAEDYWGQGTTLTVSS
VL: DVVLTQTPLSLSVTIGQPASISCKSSQSLLYSQGKIYLNWFQQRPGQSPKRLMYQLSKLDPGIPDRFSGSGSETDFTLKISRVEAEDLGVYYCLQATYTPQTFGGGTKLEIKR
notes: Mutation 1 as framework
B3: Mutation 1-11 (antibody, mouse IgG2b, kappa, V domains shown)
VH: EVQLQQSGPEVVKPGASVKISCKASGYTITDYYMNWVKQSHGKGLEWIGDVNPINGGTAYNQKFRDKATLTVDKSSNTAYMELRSLTSEDSALYYCTKGAEDYWGQGTTLTVSS
VL: DVVLTQTPLSLSVTIGQPASISCKSSQSIIYSNGKIYLNWFQQRPGQSPKRLMYQVSKLEPGIPDRFSGSGSETDFTLKISRVEAEDLGVYYCLQATYTPQTFGGGTKLEIKR
notes: Mutation 1 as framework
B4: Mutation 1-19 (antibody, mouse IgG2b, kappa, V domains shown)
VH: EVQLQQSGPEVVKPGASVKISCKASGTTLTDYYMNWVKQSHGKGLEWIGDINPIQGGTAYNQKFRDKATLTVDKSSNTAYMELRSLTSEDSALYYCTRGAEDYWGQGTTLTVSS
VL: DVVLTQTPLSLSVTIGQPASISCKSSQSIIYSQGKIYLNWFQQRPGQSPKRLMYQISKLEPGIPDRFSGSGSETDFTLKISRVEAEDLGVYYCLQATYSPQTFGGGTKLEIKR
notes: Mutation 1 as framework
B5: Mutation 1-10 (antibody, mouse IgG2b, kappa, V domains shown)
VH: EVQLQQSGPEVVKPGASVKISCKASGYTITDYYMNWVKQSHGKGLEWIGDINPINGGTAYNQKFRDKATLTVDKSSNTAYMELRSLTSEDSALYYCTRGAEDYWGQGTTLTVSS
VL: DVVLTQTPLSLSVTIGQPASISCKSSQSLLYSNGKIYLNWFQQRPGQSPKRLMYQVSKLDPGIPDRFSGSGSETDFTLKISRVEAEDLGVYYCLQGTYYPQTFGGGTKLEIKR
notes: Mutation 1 as framework
B6: Mutation 1-26 (antibody, mouse IgG2b, kappa, V domains shown)
VH: EVQLQQSGPEVVKPGASVKISCKASGTTLTDYYMNWVKQSHGKGLEWIGDVNPIQGGTAYNQKFRDKATLTVDKSSNTAYMELRSLTSEDSALYYCTRGAEDYWGQGTTLTVSS
VL: DVVLTQTPLSLSVTIGQPASISCKSSQSLLYSQGKIYLNWFQQRPGQSPKRLMYQLSKLDPGIPDRFSGSGSETDFTLKISRVEAEDLGVYYCLQGTYYPQTFGGGTKLEIKR
notes: Mutation 1 as framework
B7: Mutation 1-20 (antibody, mouse IgG2b, kappa, V domains shown)
VH: EVQLQQSGPEVVKPGASVKISCKASGSTITDYYMNWVKQSHGKGLEWIGDVNPIQGGTAYNQKFRDKATLTVDKSSNTAYMELRSLTSEDSALYYCTKGAEDYWGQGTTLTVSS
VL: DVVLTQTPLSLSVTIGQPASISCKSSQSIIYSQGKIYLNWFQQRPGQSPKRLMYQLSKLDPGIPDRFSGSGSETDFTLKISRVEAEDLGVYYCLQGTYYPQTFGGGTKLEIKR
notes: Mutation 1 as framework
B8: Mutation 1-18 (antibody, mouse IgG2b, kappa, V domains shown)
VH: EVQLQQSGPEVVKPGASVKISCKASGYTLTDYYMNWVKQSHGKGLEWIGDLNPIQGGTAYNQKFRDKATLTVDKSSNTAYMELRSLTSEDSALYYCTKGAEDYWGQGTTLTVSS
VL: DVVLTQTPLSLSVTIGQPASISCKSSQSLLYSQGKIYLNWFQQRPGQSPKRLMYQISKLDPGIPDRFSGSGSETDFTLKISRVEAEDLGVYYCLQGTYTPQTFGGGTKLEIKR
notes: Mutation 1 as framework
B9: Mutation 1-22 (antibody, mouse IgG2b, kappa, V domains shown)
VH: EVQLQQSGPEVVKPGASVKISCKASGYTITDYYMNWVKQSHGKGLEWIGDINPIQGGTAYQQKFRDKATLTVDKSSNTAYMELRSLTSEDSALYYCTKGAEDYWGQGTTLTVSS
VL: DVVLTQTPLSLSVTIGQPASISCKSSQSIIYSNGKIYLNWFQQRPGQSPKRLMYQVSKLDPGIPDRFSGSGSETDFTLKISRVEAEDLGVYYCLQATYSPQTFGGGTKLEIKR
notes: Mutation 1 as framework
B10: Mutation 1-15 (antibody, mouse IgG2b, kappa, V domains shown)
VH: EVQLQQSGPEVVKPGASVKISCKASGYTITDYYMNWVKQSHGKGLEWIGDLNPIQGGTAYNQKFRDKATLTVDKSSNTAYMELRSLTSEDSALYYCTRGAEDYWGQGTTLTVSS
VL: DVVLTQTPLSLSVTIGQPASISCKSSQSLIYSNGKIYLNWFQQRPGQSPKRLMYQLSKLEPGIPDRFSGSGSETDFTLKISRVEAEDLGVYYCLQGTYTPQTFGGGTKLEIKR
notes: Mutation 1 as framework
B11: Mutation 1-31 (antibody, mouse IgG2b, kappa, V domains shown)
VH: EVQLQQSGPEVVKPGASVKISCKASGTTLTDYYMNWVKQSHGKGLEWIGDINPINGGTAYQQKFRDKATLTVDKSSNTAYMELRSLTSEDSALYYCTKGAEDYWGQGTTLTVSS
VL: DVVLTQTPLSLSVTIGQPASISCKSSQSLLYSNGKIYLNWFQQRPGQSPKRLMYQISKLEPGIPDRFSGSGSETDFTLKISRVEAEDLGVYYCLQGTYTPQTFGGGTKLEIKR
notes: Mutation 1 as framework
B12: Mutation 1-21 (antibody, mouse IgG2b, kappa, V domains shown)
VH: EVQLQQSGPEVVKPGASVKISCKASGTTLTDYYMNWVKQSHGKGLEWIGDLNPIQGGTAYNQKFRDKATLTVDKSSNTAYMELRSLTSEDSALYYCTRGAEDYWGQGTTLTVSS
VL: DVVLTQTPLSLSVTIGQPASISCKSSQSLLYSQGKIYLNWFQQRPGQSPKRLMYQLSKLEPGIPDRFSGSGSETDFTLKISRVEAEDLGVYYCLQGTYTPQTFGGGTKLEIKR
notes: Mutation 1 as framework
B13: Mutation 1-29 (antibody, mouse IgG2b, kappa, V domains shown)
VH: EVQLQQSGPEVVKPGASVKISCKASGYTITDYYMNWVKQSHGKGLEWIGDVNPIQGGTAYNQKFRDKATLTVDKSSNTAYMELRSLTSEDSALYYCTRGAEDYWGQGTTLTVSS
VL: DVVLTQTPLSLSVTIGQPASISCKSSQSIIYSQGKIYLNWFQQRPGQSPKRLMYQVSKLEPGIPDRFSGSGSETDFTLKISRVEAEDLGVYYCLQGTYYPQTFGGGTKLEIKR
notes: Mutation 1 as framework
B14: Mutation 1-17 (antibody, mouse IgG2b, kappa, V domains shown)
VH: EVQLQQSGPEVVKPGASVKISCKASGYTITDYYMNWVKQSHGKGLEWIGDVNPINGGTAYNQKFRDKATLTVDKSSNTAYMELRSLTSEDSALYYCTKGAEDYWGQGTTLTVSS
VL: DVVLTQTPLSLSVTIGQPASISCKSSQSLLYSQGKIYLNWFQQRPGQSPKRLMYQVSKLEPGIPDRFSGSGSETDFTLKISRVEAEDLGVYYCLQGTYYPQTFGGGTKLEIKR
notes: Mutation 1 as framework
B15: Mutation 1-13 (antibody, mouse IgG2b, kappa, V domains shown)
VH: EVQLQQSGPEVVKPGASVKISCKASGSTLTDYYMNWVKQSHGKGLEWIGDINPIQGGTAYNQKFRDKATLTVDKSSNTAYMELRSLTSEDSALYYCTKGAEDYWGQGTTLTVSS
VL: DVVLTQTPLSLSVTIGQPASISCKSSQSILYSQGKIYLNWFQQRPGQSPKRLMYQISKLEPGIPDRFSGSGSETDFTLKISRVEAEDLGVYYCLQGTYYPQTFGGGTKLEIKR
notes: Mutation 1 as framework
B16: Mutation 1-23 (antibody, mouse IgG2b, kappa, V domains shown)
VH: EVQLQQSGPEVVKPGASVKISCKASGTTLTDYYMNWVKQSHGKGLEWIGDVNPIQGGTAYNQKFRDKATLTVDKSSNTAYMELRSLTSEDSALYYCTRGAEDYWGQGTTLTVSS
VL: DVVLTQTPLSLSVTIGQPASISCKSSQSIIYSNGKIYLNWFQQRPGQSPKRLMYQVSKLEPGIPDRFSGSGSETDFTLKISRVEAEDLGVYYCLQGTYYPQTFGGGTKLEIKR
notes: Mutation 1 as framework
B17: Mutation 1-28 (antibody, mouse IgG2b, kappa, V domains shown)
VH: EVQLQQSGPEVVKPGASVKISCKASGYTITDYYMNWVKQSHGKGLEWIGDINPIQGGTAYQQKFRDKATLTVDKSSNTAYMELRSLTSEDSALYYCTKGAEDYWGQGTTLTVSS
VL: DVVLTQTPLSLSVTIGQPASISCKSSQSIIYSNGKIYLNWFQQRPGQSPKRLMYQVSKLDPGIPDRFSGSGSETDFTLKISRVEAEDLGVYYCLQATYTPQTFGGGTKLEIKR
notes: Mutation 1 as framework
B18: Mutation 1-14 (antibody, mouse IgG2b, kappa, V domains shown)
VH: EVQLQQSGPEVVKPGASVKISCKASGYTLTDYYMNWVKQSHGKGLEWIGDVNPINGGTAYNQKFRDKATLTVDKSSNTAYMELRSLTSEDSALYYCTKGAEDYWGQGTTLTVSS
VL: DVVLTQTPLSLSVTIGQPASISCKSSQSLIYSNGKIYLNWFQQRPGQSPKRLMYQLSKLDPGIPDRFSGSGSETDFTLKISRVEAEDLGVYYCLQATYTPQTFGGGTKLEIKR
notes: Mutation 1 as framework
B19: Mutation 1-16 (antibody, mouse IgG2b, kappa, V domains shown)
VH: EVQLQQSGPEVVKPGASVKISCKASGYTITDYYMNWVKQSHGKGLEWIGDINPIQGGTAYNQKFRDKATLTVDKSSNTAYMELRSLTSEDSALYYCTRGAEDYWGQGTTLTVSS
VL: DVVLTQTPLSLSVTIGQPASISCKSSQSLLYSQGKIYLNWFQQRPGQSPKRLMYQVSKLDPGIPDRFSGSGSETDFTLKISRVEAEDLGVYYCLQGTYSPQTFGGGTKLEIKR
notes: Mutation 1 as framework
B20: Mutation 1-25 (antibody, mouse IgG2b, kappa, V domains shown)
VH: EVQLQQSGPEVVKPGASVKISCKASGYTITDYYMNWVKQSHGKGLEWIGDINPIQGGTAYNQKFRDKATLTVDKSSNTAYMELRSLTSEDSALYYCTRGAEDYWGQGTTLTVSS
VL: DVVLTQTPLSLSVTIGQPASISCKSSQSLLYSQGKIYLNWFQQRPGQSPKRLMYQISKLEPGIPDRFSGSGSETDFTLKISRVEAEDLGVYYCLQGTYTPQTFGGGTKLEIKR
notes: Mutation 1 as framework
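Note: optical density read across an antibody dilution series at each antigen coating level, curves plotted on log scale, KD derived as reciprocal of the averaged constant.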

For the assay, the target named is T1, Plasmodium falciparum histidine-rich protein II (HRP-II) (Plasmodium falciparum, UniProt P05227 22-332).
T1 construct: Coating antigen of all ELISAs; also called HRP-II protein; MA-HRPII Ag protein
T1 sequence (looked up): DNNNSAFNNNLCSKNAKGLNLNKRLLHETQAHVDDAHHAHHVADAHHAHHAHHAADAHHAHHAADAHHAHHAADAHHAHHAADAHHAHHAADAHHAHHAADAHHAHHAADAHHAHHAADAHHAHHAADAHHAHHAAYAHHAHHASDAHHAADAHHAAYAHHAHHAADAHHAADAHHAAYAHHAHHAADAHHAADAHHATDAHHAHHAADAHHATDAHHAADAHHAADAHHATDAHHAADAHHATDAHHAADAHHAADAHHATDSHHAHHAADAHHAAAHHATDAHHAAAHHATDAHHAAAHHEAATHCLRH
As to the kind of experiment: indirect ELISA, four antigen coating concentrations. (In general: ELISA stands for enzyme-linked immunosorbent assay.)
Procedure: The OD values corresponding to different antibody concentrations with different coating concentrations are obtained. Under the same coating concentration, the antibody concentrations are used as an abscissa, the 00 values are used as an ordinate, and a logarithmic plot is made. […] An average value thereof is taken and a reciprocal thereof is calculated to get the affinity constant KD.
Take B1: the affinity, expressed as Kd, was 0.329 nM.

Regarding B2, the Kd (usually the constant that tells how readily two partners part at equilibrium) is 0.198 nM.

B3 yielded a Kd of 0.0213 nM.

The molecule B4 displayed a Kd of 0.0835 nM.

B5: the Kd stood at 0.827 nM.

With B6, binding was put at a Kd of 0.211 nM.

As for B7, binding was characterised by a dissociation constant (Kd) of 0.251 nM.

In the case of B8, the Kd turned out to be 0.051 nM.

B9 had a Kd of 0.0814 nM. Against the preceding molecule, the Kd is about 1.6-fold higher.

B10: the Kd was 0.245 nM. This Kd is about 3-fold higher than that of the molecule before.

B11 yielded a Kd of 0.0946 nM.

B12: the Kd was 0.0828 nM.

B13: the Kd is 0.0835 nM.

Molecule B14 displayed a Kd of 0.0824 nM.

Consider B15, for which binding was characterised by a dissociation constant (Kd) of 0.0865 nM.

Molecule B16 came in with a Kd of 0.364 nM.

In turn, B17 came in with a Kd of 0.012 nM. Compared with the last molecule, the Kd is about 30-fold lower.

In turn, B18 came in with a Kd of 0.226 nM.

Turning to B19, the affinity, expressed as Kd, was 0.502 nM.

In the case of B20, binding was characterised by a dissociation constant (Kd) of 0.444 nM.
